Assays:
M2DLTGS peptide = M2DLTGS peptide (influenza A virus); test: peptide ELISA, avian flu M2 variants
M2LTKGS peptide = M2LTKGS peptide (influenza A virus); test: peptide ELISA, avian flu M2 variants

B1: human anti-M2 monoclonal antibody no. Z3G1 (recombinant IgG1 type Z3, CHO; ATCC PTA-5967) (antibody, V domains shown)
VH: QVQLVQSGAEVKKPGASVKVSCKASGYTFTSYGISWVRQAPGQGLEWMGWISAYNGNTNYAQKLQGRVTMTTDTSTSTAYMELRSLRSDDTAVYYCARAAAGGYFQHWGQGTLVTVSS
VL: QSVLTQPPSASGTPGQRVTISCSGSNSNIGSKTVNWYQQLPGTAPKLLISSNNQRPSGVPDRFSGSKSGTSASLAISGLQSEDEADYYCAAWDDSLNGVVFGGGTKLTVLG
M2DLTGS peptide
  binding result: binds
M2LTKGS peptide
  binding result: binds

Source: US20090196872A1 (KIRIN BEER, published 2009)
